Source: patent US20250304927A1, “PRO-PEPTIDE VARIANTS FOR MODULATING ACTIVITY OF TRANSGLUTAMINASES” (CURIE CO. INC., priority 2022, published 2025)
Where no end group is shown, it is not given here.

Legend:
[1] = molecular target: T1, mature evolved transglutaminase (SEQ ID NO: 5) (Streptomyces mobaraensis, UniProt P81453, G359A/K167H/K227R/K228R/N358M/Q126S/Q150A/Q200L); test: transglutaminase thermostability: activity after being held at 37-50 °C; format: biochemical; parameters: key: The symbol, —, represents not determined, neutral, or reduced performance; details: relative to wild-type pro-peptide; held at 37° C.-50° C. for 30 minutes, diluted 10-fold to 100-fold
T1 construct: hexa-His tag with two amino acid linker (C); made in house; host or cells: E. coli BL21 (DE3)
Procedure: The terms “stability” and “thermostability” are used interchangeably to refer to increased residual activity of mature transglutaminase after incubation at elevated temperatures. In some embodiments, a pro-peptide variant increases the stability of a mature transglutaminase compared to the wild type pro-peptide. Measurement of stability is depicted in Example 4.
It is believed that these pro-peptide variants confer thermal stability to mature transglutaminase.

[2] = molecular target: T2, thermostable mature transglutaminase variant (SEQ ID NO: 3) (Streptomyces mobaraensis, UniProt P81453); format: biochemical; details: increase in transglutaminase activity relative to wild-type pro-peptide, casein assay; Method A
T2 construct: made in house; host or cells: E. coli (lysate)
Text: Method A. A bicistronic expression vector encoding the wild-type pro-domain of transglutaminase (SEQ ID NO: 2) and a thermostable mature transglutaminase variant (SEQ ID NO: 3) as separate polypeptides was cloned as described in PCT/US20/49226 (WO2021/178001 A1). The vector was used as a template for synthesis of a random mutagenesis library targeting the pro-domain coding sequence to create pro-domain peptide variants.
Method A. Plasmid libraries containing mature transglutaminase and variant pro-domain peptides were plated on Luria-Bertani (LB) agar plates containing 50 μg/mL of kanamycin. After incubation for at least 16 hours at 37° C., colonies were picked and inoculated into 1 mL of LB broth with 50 μg/mL kanamycin in one well of a 96 deep well culture plate. The plate was covered with a breathable seal and incubated overnight at 37° C. with 400 rpm of shaking. 10 μL of the seed culture was used to inoculate 1 mL of media in a 96 deep well culture plate for expression. The expression plate was allowed to grow for 6-8 hours at 30° C. Expression was then induced by adding isopropyl beta-D-1-thiogalactopyranoside (IPTG) to a final concentration of 1 mM and the temperature was reduced to 20° C. while growth continued for an additional 15 hours. Cells were harvested by centrifugation at 4000 rcf for 30 minutes and pellets were frozen at −80° C.
A secondary screen was performed to determine initial rate of transglutaminase in the presence of the pro-peptide variants using transglutaminase-catalyzed labeling of casein with dansylcadaverine (e.g., a commercially available kit such as the Transglutaminase Fluorogenic Activity Assay Kit, T036, Zedira, Germany). Transglutaminase activity was monitored by measuring the fluorescence (excitation wavelength 332 nm; emission wavelength 500 nm) using a BioTek Synergy H1 microplate reader. Transglutaminase-catalyzed covalent coupling (crosslinking) of monodansylcadaverine with N,N-dimethylcasein produces a product that causes a shift in intensity and wavelength of fluorescence of the dansyl group now linked to the casein. The relative transglutaminase activity is shown by increase of fluorescence intensity over time. The data were normalized for transglutaminase expression levels in E. coli lysate as described above. Pro-domain variants were identified based on their ability to alter the activity of the mature transglutaminase enzyme. […]
It is believed that these pro-peptide variants have reduced binding affinity with mature mTgase.

[3] = molecular target: T3, evolved variant of mature Streptomyces mobaraensis transglutaminase, including a two amino acid linker and … (Streptomyces mobaraensis, UniProt P81453 79-407); test: cell-based or functional assay
T3 chain: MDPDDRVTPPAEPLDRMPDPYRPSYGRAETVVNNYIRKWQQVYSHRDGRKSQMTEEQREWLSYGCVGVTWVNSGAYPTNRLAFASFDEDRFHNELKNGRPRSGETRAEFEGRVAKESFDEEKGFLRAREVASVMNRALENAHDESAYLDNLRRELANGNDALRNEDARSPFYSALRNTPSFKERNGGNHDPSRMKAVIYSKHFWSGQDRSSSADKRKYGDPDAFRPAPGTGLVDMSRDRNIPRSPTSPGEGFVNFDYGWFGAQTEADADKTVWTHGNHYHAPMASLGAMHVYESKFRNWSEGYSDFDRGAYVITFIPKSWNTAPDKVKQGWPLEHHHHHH

T2 sequence (P81453 other isoform, or with tags, fused parts or gaps): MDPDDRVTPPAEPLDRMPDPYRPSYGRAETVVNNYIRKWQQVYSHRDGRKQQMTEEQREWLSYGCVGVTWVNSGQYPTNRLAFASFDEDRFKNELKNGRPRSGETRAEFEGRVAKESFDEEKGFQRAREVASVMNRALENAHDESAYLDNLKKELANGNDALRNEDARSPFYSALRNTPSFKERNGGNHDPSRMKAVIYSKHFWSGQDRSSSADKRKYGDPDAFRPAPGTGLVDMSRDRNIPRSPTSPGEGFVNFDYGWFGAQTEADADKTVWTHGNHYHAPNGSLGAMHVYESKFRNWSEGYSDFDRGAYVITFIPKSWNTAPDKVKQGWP

Molecule	Inhibition [3] [fold]	further results
D2S, E7S: combination variant of pro-peptide SEQ ID NO: 2, Method B (MSNGAGSETKSYAETYRLTADDVANINALNESAPAASSAGPSFRAP)		Thermostability [1]: —
L18V, D21T, D22Q: combination variant of pro-peptide SEQ ID NO: 2, Method B (MDNGAGEETKSYAETYRVTATQVANINALNESAPAASSAGPSFRAP)		Thermostability [1]: —
D2F: substitution variant of pro-peptide SEQ ID NO: 2 (MFNGAGEETKSYAETYRLTADDVANINALNESAPAASSAGPSFRAP) [Variant D2F]		Thermostability [1]: —
D2S, D22Q: combination variant of pro-peptide SEQ ID NO: 2, Method B (MSNGAGEETKSYAETYRLTADQVANINALNESAPAASSAGPSFRAP)		Thermostability [1]: —
D2S, E7S, D21T, D22Q: combination variant of pro-peptide SEQ ID NO: 2, Method B (MSNGAGSETKSYAETYRLTATQVANINALNESAPAASSAGPSFRAP)		Thermostability [1]: —
D2S, E7S, D21I: combination variant of pro-peptide SEQ ID NO: 2, Method B (MSNGAGSETKSYAETYRLTAIDVANINALNESAPAASSAGPSFRAP)		Thermostability [1]: —
D2I, E7S, L18V, D21R: combination variant of pro-peptide SEQ ID NO: 2, Method B (MINGAGSETKSYAETYRVTARDVANINALNESAPAASSAGPSFRAP)		Thermostability [1]: —
D2S, D21T, D22Q: combination variant of pro-peptide SEQ ID NO: 2, Method B (MSNGAGEETKSYAETYRLTATQVANINALNESAPAASSAGPSFRAP)		Thermostability [1]: —
D21T, D22Q: combination variant of pro-peptide SEQ ID NO: 2, Method B (MDNGAGEETKSYAETYRLTATQVANINALNESAPAASSAGPSFRAP)		Thermostability [1]: —
D2S, L18V, D22Q: combination variant of pro-peptide SEQ ID NO: 2, Method B (MSNGAGEETKSYAETYRVTADQVANINALNESAPAASSAGPSFRAP)		Thermostability [1]: —
D2I, D21T, D22Q: combination variant of pro-peptide SEQ ID NO: 2, Method B (MINGAGEETKSYAETYRLTATQVANINALNESAPAASSAGPSFRAP)		Thermostability [1]: —
MDNGAGEETKSPAETYRLTADDVANINALNESAPAASSAGPSFRAP [Variant Y12P]		Reduction in binding affinity of inhibitory peptide relative to WT [2]: >1.2 fold
MDNGAGEETKSYAETYRLTADQVANINALNESAPAASSAGPSFRAP [Variant D22Q]		Reduction in binding affinity of inhibitory peptide relative to WT [2]: >1.2 fold
MDNGAGEETRSYAETYRLTADDVANINALNESAPAASSAGPSFRAP [Variant K10R]		Reduction in binding affinity of inhibitory peptide relative to WT [2]: >1.2 fold
MDNGAGEETCSYAETYRLTADDVANINALNESAPAASSAGPSFRAP [Variant K10C]		Reduction in binding affinity of inhibitory peptide relative to WT [2]: >1.2 fold
MDNGAGEETKSNAETYRLTADDVANINALNESAPAASSAGPSFRAP [Variant Y12N]		Reduction in binding affinity of inhibitory peptide relative to WT [2]: >1.2 fold
MDNGAGEETKSYAETYRLTADDVAN [ΔI26-P46]		Reduction in binding affinity of inhibitory peptide relative to WT [2]: >1.2 fold
MDNGAGEETKSYAETYRLTADDVANINALNESAPAASPAGPSFRAP [Variant S38P]		Reduction in binding affinity of inhibitory peptide relative to WT [2]: >1.2 fold
MDNGAGEETKSYAETYR [ΔL18-P46]		Reduction in binding affinity of inhibitory peptide relative to WT [2]: >1.2 fold
MDNGAGEETKLYAETYRLTADDVANINALNESAPAASSAGPSFRAP [Variant S11L]		Reduction in binding affinity of inhibitory peptide relative to WT [2]: >1.2 fold
MSNGAGSETKSYAETYRLTADQVANINALNESAPAASSAGPSFRAP [pro-peptide variant D2S, E7S, D22Q (Method B)]	> 2	
MSNGAGSETKSYAETYRLTADDVANINALNESAPAASSAGPSFRAP [pro-peptide variant D2S, E7S (Method B)]	> 2	

Molecule	Inhibition [3] [fold]	further results
MINGAGSETKSYAETYRLTADQVANINALNESAPAASSAGPSFRAP [pro-peptide variant D2I, E7S, D22Q (Method B)]	> 2	
MSNGAGSETKSYAETYRLTAIDVANINALNESAPAASSAGPSFRAP [pro-peptide variant D2S, E7S, D21I (Method B)]	> 1.2	
MDNGAGSETKSYAETYRLTATDVANINALNESAPAASSAGPSFRAP [pro-peptide variant E7S, D21T (Method B)]	> 1.2	
MDNGAGSETKSYAETYRLTARDVANINALNESAPAASSAGPSFRAP [pro-peptide variant E7S, D21R (Method B)]	> 1.2	
MINGAGEETKSYAETYRLTATQVANINALNESAPAASSAGPSFRAP [pro-peptide variant D2I, D21T, D22Q (Method B)]	> 1.2	
MFNGAGEETKSYAETYRLTADDVANINALNESAPAASSAGPSFRAP [pro-peptide variant D2F (Method B)]	> 1.2	
MDNGAGSETKSYAETYRVTAIDVANINALNESAPAASSAGPSFRAP [pro-peptide variant E7S, L18V, D21I (Method B)]	> 2	
MDNGAGEETKSYAETYRVTATDVANINALNESAPAASSAGPSFRAP [pro-peptide variant L18V, D21T (Method B)]	> 2	
MDNGAGSETKSYAETYRLTATQVANINALNESAPAASSAGPSFRAP [pro-peptide variant E7S, D21T, D22Q (Method B)]	> 1.2	
MDNGAGEETKSYAETYRLTATQVANINALNESAPAASSAGPSFRAP [pro-peptide variant D21T, D22Q (Method B)]	> 1.2	
MSNGAGEETKSYAETYRLTATQVANINALNESAPAASSAGPSFRAP [pro-peptide variant D2S, D21T, D22Q (Method B)]	> 1.2	
MINGAGSETKSYAETYRLTAIDVANINALNESAPAASSAGPSFRAP [pro-peptide variant D2I, E7S, D21I (Method B)]	> 1.2	
MSNGAGEETKSYAETYRVTADQVANINALNESAPAASSAGPSFRAP [pro-peptide variant D2S, L18V, D22Q (Method B)]	> 2	
MSNGAGEETKSYAETYRLTADQVANINALNESAPAASSAGPSFRAP [pro-peptide variant D2S, D22Q (Method B)]	> 2	
MSNGAGSETKSYAETYRLTATQVANINALNESAPAASSAGPSFRAP [pro-peptide variant D2S, E7S, D21T, D22Q (Method B)]	> 2	
MDNGAGSETKSYAETYRVTARDVANINALNESAPAASSAGPSFRAP [pro-peptide variant E7S, L18V, D21R (Method B)]	> 2	
MDNGAGEETKSYAETYRVTADDVANINALNESAPAASSAGPSFRAP [pro-peptide variant L18V (Method B)]	> 2	
MDNGAGEETKSYAETYRVTATQVANINALNESAPAASSAGPSFRAP [pro-peptide variant L18V, D21T, D22Q (Method B)]	> 2	
MINGAGSETKSYAETYRVTARDVANINALNESAPAASSAGPSFRAP [pro-peptide variant D2I, E7S, L18V, D21R (Method B)]	> 2	
MDNGAGSETKSYAETYRLTADQVANINALNESAPAASSAGPSFRAP [pro-peptide variant E7S, D22Q (Method B)]	> 1.2	
MINGAGEETKSYAETYRLTADQVANINALNESAPAASSAGPSFRAP [pro-peptide variant D2I, D22Q (Method B)]	> 1.2	
